Target: chimeric TSH receptor (chimeric MC4 receptor) expressed on CHO-MC4 cells (human/rat chimera) (UniProt P16473)
Test: cell-based or functional assay

Chain of thyroid blocking monoclonal antibody K1-70 (VH): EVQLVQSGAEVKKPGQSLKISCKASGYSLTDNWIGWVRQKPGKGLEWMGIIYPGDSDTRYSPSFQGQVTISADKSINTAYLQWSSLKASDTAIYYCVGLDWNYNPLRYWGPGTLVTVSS
Chain of thyroid blocking monoclonal antibody K1-70 (VL): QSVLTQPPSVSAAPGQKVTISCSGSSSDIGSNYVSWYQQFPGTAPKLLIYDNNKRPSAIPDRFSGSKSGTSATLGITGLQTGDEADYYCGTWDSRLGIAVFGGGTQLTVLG

Substance: thyroid blocking monoclonal antibody K1-70
- % inhibition, TBI assay, 2.5 ng K1-70 (TBI positive): 86%
- % inhibition, TBI assay, K1-70 0.0025 ng/ml: -6%
- % inhibition, TBI assay, K1-70 0.1 ng/ml: 6%
- % inhibition, TBI assay, K1-70 0.4 ng/ml: 25%
- % inhibition, TBI assay, K1-70 0.6 ng/ml: 27%
- % inhibition, TBI assay, K1-70 1 ng/ml: 38%
- % inhibition, TBI assay, K1-70 1.5 ng/ml: 55%
- % inhibition, TBI assay, K1-70 1.56 ng/ml: 60%
- % inhibition, TBI assay, K1-70 5 ng/ml: 102%
- % inhibition, TBI assay, K1-70 10 ng/ml: 114%
- % inhibition, TBI assay, K1-70 12.5 ng/ml: 104%
- % inhibition, TBI assay, K1-70 25 ng/ml: 104%
- % inhibition, TBI assay, K1-70 50 ng/ml: 103%
- % inhibition, TBI assay, K1-70 100 ng/ml: 101%
- % inhibition, TBI assay, K1-70 only 100% (5 ng/ml K1-70): 94%
- % inhibition, TBI assay, mixture M22:K1-70 10:90: 77%
- % inhibition, TBI assay, mixture M22:K1-70 20:80: 51%
- % inhibition, TBI assay, mixture M22:K1-70 30:70: 27%
- % inhibition, TBI assay, mixture M22:K1-70 50:50: -37%
- % inhibition, TBI assay, mixture M22:K1-70 60:40: -59%
- % inhibition, TBI assay, mixture M22:K1-70 90:10: -98%
- IC50, TBI bioassay: 1.34 ng/mL
- IC50 of TBI assay with CHO-MC4 cells: 1.34 ng/mL
- RLU, TBI assay, 2.5 ng K1-70 (TBI positive): 5530 RLU
- RLU, TBI assay, 2.5 ng K1-70 with FSH 116.3 mIU/ml: 6100 RLU
- RLU, TBI assay, 2.5 ng K1-70 with FSH 232.6 mIU/ml: 5810 RLU
- RLU, TBI assay, 2.5 ng K1-70 with LH 20 mIU/ml: 6100 RLU
- RLU, TBI assay, 2.5 ng K1-70 with LH 40 mIU/ml: 5770 RLU
- RLU, TBI assay, 2.5 ng K1-70 with hCG 8000 mIU/ml: 6000 RLU
- RLU, TBI assay, 2.5 ng K1-70 with hCG 16000 mIU/ml: 5950 RLU
- RLU, TBI assay, K1-70 0.0025 ng/ml: 16400 RLU
- RLU, TBI assay, K1-70 0.05 ng/ml: 15700 RLU
- RLU, TBI assay, K1-70 0.1 ng/ml: 13600 RLU
- RLU, TBI assay, K1-70 0.2 ng/ml: 14100 RLU
- RLU, TBI assay, K1-70 0.4 ng/ml: 12800 RLU
- RLU, TBI assay, K1-70 0.6 ng/ml: 12600 RLU
- RLU, TBI assay, K1-70 0.8 ng/ml: 12700 RLU
- RLU, TBI assay, K1-70 1 ng/ml: 11300 RLU
- RLU, TBI assay, K1-70 1.5 ng/ml: 9420 RLU
- RLU, TBI assay, K1-70 2 ng/ml: 7940 RLU
- RLU, TBI assay, K1-70 2.5 ng/ml: 6620 RLU
- RLU, TBI assay, K1-70 5 ng/ml: 4010 RLU
- RLU, TBI assay, K1-70 10 ng/ml: 2700 RLU
- RUT, TBI assay, K1-70 only 100% (5 ng/ml K1-70): 2420 RUT
- RUT, TBI assay, mixture M22:K1-70 10:90: 4000 RUT
- RUT, TBI assay, mixture M22:K1-70 20:80: 6470 RUT
- RUT, TBI assay, mixture M22:K1-70 30:70: 8650 RUT
- RUT, TBI assay, mixture M22:K1-70 40:60: 12300 RUT
- RUT, TBI assay, mixture M22:K1-70 50:50: 14600 RUT
- RUT, TBI assay, mixture M22:K1-70 60:40: 16700 RUT
- RUT, TBI assay, mixture M22:K1-70 70:30: 17600 RUT
- RUT, TBI assay, mixture M22:K1-70 80:20: 19600 RUT
- RUT, TBI assay, mixture M22:K1-70 90:10: 20400 RUT
- sensitivity of TBI bioassay against TRAb assay: > 20 fold

Substance: thyroid stimulating monoclonal antibody M22
- % inhibition, TBI assay, M22 0.02 ng/ml: 2%
- % inhibition, TBI assay, M22 0.04 ng/ml: 0%
- % inhibition, TBI assay, M22 0.05 ng/ml: -6%
- % inhibition, TBI assay, M22 0.06 ng/ml: -11%
- % inhibition, TBI assay, M22 0.08 ng/ml: -21%
- % inhibition, TBI assay, M22 0.1 ng/ml: -27%
- % inhibition, TBI assay, M22 0.15 ng/ml: -32%
- % inhibition, TBI assay, M22 0.2 ng/ml: -52%
- % inhibition, TBI assay, M22 0.25 ng/ml: -50%
- % inhibition, TBI assay, M22 0.3 ng/ml: -65%
- % inhibition, TBI assay, M22 0.35 ng/ml: -63%
- % inhibition, TBI assay, M22 0.4 ng/ml: -64%
- % inhibition, TBI assay, M22 0.6 ng/ml: -66%
- % inhibition, TBI assay, M22 0.8 ng/ml: -73%
- % inhibition, TBI assay, M22 1.2 ng/ml: -83%
- % inhibition, TBI assay, M22 only 100% (0.8 ng/ml M22): -106%
- EC50 of stimulatory activity, TBI assay: 0.16 ng/mL
- EC50 of stimulatory activity, TSI assay: 0.14 ng/mL
- RLU, TBI assay, M22 0.02 ng/ml: 9070 RLU
- RLU, TBI assay, M22 0.04 ng/ml: 9260 RLU
- RLU, TBI assay, M22 0.05 ng/ml: 9690 RLU
- RLU, TBI assay, M22 0.06 ng/ml: 10100 RLU
- RLU, TBI assay, M22 0.08 ng/ml: 10900 RLU
- RLU, TBI assay, M22 0.1 ng/ml: 11300 RLU
- RLU, TBI assay, M22 0.15 ng/ml: 11700 RLU
- RLU, TBI assay, M22 0.2 ng/ml: 13300 RLU
- RLU, TBI assay, M22 0.25 ng/ml: 13100 RLU
- RLU, TBI assay, M22 0.3 ng/ml: 14300 RLU
- RLU, TBI assay, M22 0.35 ng/ml: 14100 RLU
- RLU, TBI assay, M22 0.4 ng/ml: 14200 RLU
- RLU, TBI assay, M22 0.6 ng/ml: 14400 RLU
- RLU, TBI assay, M22 0.8 ng/ml: 15000 RLU
- RLU, TBI assay, M22 1.2 ng/ml: 15700 RLU
- RUT, TBI assay, M22 only 100% (0.8 ng/ml M22): 21200 RUT
- SRR % (TBI), M22 0.02 ng/ml: 61%
- SRR % (TBI), M22 0.04 ng/ml: 95%
- SRR % (TBI), M22 0.05 ng/ml: 111%
- SRR % (TBI), M22 0.06 ng/ml: 122%
- SRR % (TBI), M22 0.08 ng/ml: 146%
- SRR % (TBI), M22 0.1 ng/ml: 180%
- SRR % (TBI), M22 0.15 ng/ml: 236%
- SRR % (TBI), M22 0.2 ng/ml: 270%
- SRR % (TBI), M22 0.25 ng/ml: 283%
- SRR % (TBI), M22 0.3 ng/ml: 302%
- SRR % (TBI), M22 0.35 ng/ml: 315%
- SRR % (TBI), M22 0.4 ng/ml: 332%
- SRR % (TBI), M22 0.6 ng/ml: 368%
- SRR % (TBI), M22 0.8 ng/ml: 368%
- SRR % (TBI), M22 1.2 ng/ml: 365%

Substance: human chorionic gonadotropin (from UniProt P01215 25-116; P0DN86 21-165) (ligand)
- % inhibition, TBI assay, hCG 8000 mIU/ml in reaction buffer (no K1-70): -7%
- % inhibition, TBI assay, hCG 16000 mIU/ml in reaction buffer (no K1-70): 0%
- RLU, TBI assay, hCG 8000 mIU/ml in reaction buffer (no K1-70): 17500 RLU
- RLU, TBI assay, hCG 16000 mIU/ml in reaction buffer (no K1-70): 16500 RLU

Substance: luteinizing hormone (ligand)
- % inhibition, TBI assay, LH 20 mIU/ml in reaction buffer (no K1-70): -5%
- % inhibition, TBI assay, LH 40 mIU/ml in reaction buffer (no K1-70): -6%
- RLU, TBI assay, LH 20 mIU/ml in reaction buffer (no K1-70): 17300 RLU
- RLU, TBI assay, LH 40 mIU/ml in reaction buffer (no K1-70): 17400 RLU

Substance: follicle stimulating hormone (ligand)
- % inhibition, TBI assay, FSH 116.3 mIU/ml in reaction buffer (no K1-70): 0%
- % inhibition, TBI assay, FSH 232.6 mIU/ml in reaction buffer (no K1-70): 1%
- RLU, TBI assay, FSH 116.3 mIU/ml in reaction buffer (no K1-70): 16500 RLU
- RLU, TBI assay, FSH 232.6 mIU/ml in reaction buffer (no K1-70): 16300 RLU

— patent US20200340991A1
